Source: patent publication US20200199231A1 (Genmab, published 2020)

T1: CD20 KDD mutant (human, UniProt P11836 1-297)
T1 construct: whole, on cells; Transiently expressed in HEK293F cells; also called T159K/N163D/N166D
T1 sequence (looked up): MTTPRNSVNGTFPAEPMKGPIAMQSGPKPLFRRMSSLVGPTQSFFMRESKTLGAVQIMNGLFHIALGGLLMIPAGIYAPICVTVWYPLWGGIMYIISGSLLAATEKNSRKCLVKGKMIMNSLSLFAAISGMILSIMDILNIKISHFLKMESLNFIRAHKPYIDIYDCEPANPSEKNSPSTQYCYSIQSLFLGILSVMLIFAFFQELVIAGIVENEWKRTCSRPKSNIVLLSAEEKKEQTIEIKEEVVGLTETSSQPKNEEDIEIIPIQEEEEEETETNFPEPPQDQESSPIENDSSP

T2: CD20-AxP (human, UniProt P11836 1-297)
T2 construct: whole, on cells; Transiently expressed in HEK293F cells; also called AxP mutant; CD20 mutant (CD20-AxP)
T2 sequence (looked up): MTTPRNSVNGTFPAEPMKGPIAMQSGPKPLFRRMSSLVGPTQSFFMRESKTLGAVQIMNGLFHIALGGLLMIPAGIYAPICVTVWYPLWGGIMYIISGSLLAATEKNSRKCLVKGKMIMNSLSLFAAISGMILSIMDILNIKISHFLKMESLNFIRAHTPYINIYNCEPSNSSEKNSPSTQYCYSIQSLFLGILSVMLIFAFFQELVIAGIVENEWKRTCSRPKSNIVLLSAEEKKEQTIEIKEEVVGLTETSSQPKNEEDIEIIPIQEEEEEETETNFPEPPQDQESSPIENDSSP

T3: human CD20 (human, UniProt P11836 1-297)
T3 construct: whole, on cells; On Daudi and other human B cell lines, on human B cells in blood, or transiently expressed in HEK293F cells (construct pEE12.4CD20HS-GA); also called wild type CD20; WT CD20
T3 sequence (looked up): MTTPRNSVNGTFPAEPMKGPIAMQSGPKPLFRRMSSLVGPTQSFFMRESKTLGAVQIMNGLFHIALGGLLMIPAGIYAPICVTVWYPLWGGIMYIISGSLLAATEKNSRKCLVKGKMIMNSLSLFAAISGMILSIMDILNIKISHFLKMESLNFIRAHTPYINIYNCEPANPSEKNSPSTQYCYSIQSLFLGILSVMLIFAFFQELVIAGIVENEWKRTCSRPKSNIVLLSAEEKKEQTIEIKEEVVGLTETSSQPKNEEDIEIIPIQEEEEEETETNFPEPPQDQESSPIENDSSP


How the values were obtained:
CD20 KDD mutant [1] = target: T1, CD20 KDD mutant; assay: flow cytometry, HEK293F cells expressing CD20 KDD mutant
Method: (§1) PCR was performed on a Tgradient Thermocycler 96 (Biometra) using a 35 cycle program of: +95° C. for 15 min, followed by 35 cycles of: +94° C. for 30 sec, anneal: 55° C. for 30 sec and extension: +72° C. for 2 min, followed by a final extension step at 72° C. for 10 min and subsequent storage at 4° C. The completed reactions were analyzed by agarose gel electrophoresis. See Table 11 for details of primer pairs used for colony PCR. DNA sequencing: Plasmid DNA samples were send to AGOWA (Berlin, Germany) for sequence analysis. Sequences were analyzed using the VectorNTI software package (Informax, Frederick, Md., USA).
(§2) Mutagenesis: The mutagenesis was performed, using the QuikChange® XL Site-Directed Mutagenesis kit (Cat 200517-5, Lot 1120630, Stratagene Europe) according to the manufacturer's instructions. Mutagenesis reactions were concentrated using ethanol precipitation and transformed into either oneshot DH5α-TIR competent E. coli cells or electroporated into ElectroTen-Blue® Electroporation-Competent Cells. Colonies were checked by colony PCR and restriction digestion prior to transfection. […] Anti-CD20 Antibody binding: HEK293F cells were taken up in staining buffer (PBS supplemented with 0.1% BSA and 0.02% NaN₃) and added to round bottom plates (1-3×10⁵/well in 100 μL). […] After washing twice in staining buffer, cells were incubated in 50 μL secondary antibody at 4° C. for 30 min. As a secondary antibody, R-Phycoerythrin (PE)-conjugated goat-anti-human IgG F(ab′)₂ was used, as described supra. Next, cells were washed once in staining buffer, re-suspended in 150 μL staining buffer and analyzed on a flow cytometer (FACSCanto-720, Becton Dickinson, San Diego, Calif., USA) and 10,000 events per sample were acquired at high flow rate. Binding curves were analyzed using non-linear regression (sigmoidal dose-response with variable slope) using GraphPad Prism V75.04 software (GraphPad Software, San Diego, Calif., USA).

CD20-AxP [2] = target: T2, CD20-AxP; assay: flow cytometry, HEK293F transfectants, MFI mutant/MFI wt at 10 µg/mL
Method: (§3) As a secondary antibody, R-Phycoerythrin (PE)-conjugated goat-anti-human IgG F(ab′)₂ was used, as described supra. Next, cells were washed once in staining buffer, re-suspended in 150 μL staining buffer and analyzed on a flow cytometer (FACSCanto-720, Becton Dickinson, San Diego, Calif., USA) and 10,000 events per sample were acquired at high flow rate. Binding curves were analyzed using non-linear regression (sigmoidal dose-response with variable slope) using GraphPad Prism V75.04 software (GraphPad Software, San Diego, Calif., USA).
(§4) Numbers indicate the percentage of binding to the CD20 mutants, relative to binding to wild type CD20, at 10 μg/mL. The percentage of binding was calculated by the following formula: (MFI binding to CD20 mutant)/(MFI binding CD20 wt) × 100%

CD20 KDD mutant [3] = target: T1, CD20 KDD mutant; assay: as above
Method: as §3, §4

human CD20 = target: T3, human CD20; assay: flow cytometry on HEK293F cells transiently expressing wild type CD20; PE-conjugated goat anti-human IgG F(ab')2; MFI
Method: as §1, §2

CD20-AxP [4] = target: T2, CD20-AxP; assay: flow cytometry on HEK293F cells transiently expressing CD20-AxP (A170S/P172S); PE-conjugated goat anti-human IgG F(ab')2; MFI
Method: as §1, §2

Row | Binder | binding result (CD20 KDD mutant [1]) | % of wt CD20 binding (CD20-AxP [2]) [%] | % of wt CD20 binding (CD20 KDD mutant [3]) [%] | EC50 (read off the curve) (human CD20) [µg/mL] | EC50 (read off the curve) (CD20-AxP [4]) [µg/mL]
1 | bsIgG1-huCD3-H1L1-FEALxCD20-7D8-FEAR (bispecific antibody, Made by 2-MEA-induced Fab-arm exchange; also called CD3xCD20; CD3x7D8) heavy 1: not shown light: not shown heavy 2: EVQLVESGGGLVQPDRSLRLSCAASGFTFHDYAMHWVRQAPGKGLEWVSTISWNSGTIGYADSVKGRFTISRDNAKNSLYLQMNSLRAEDTALYYCAKDIQYGNYYYGMDVWGQGTTVTVSSASTKGPSVFPLAPSSKSTSGGTAALGCLVKDYFPEPVTVSWNSGALTSGVHTFPAVLQSSGLYSLSSVVTVPSSSLGTQTYICNVNHKPSNTKVDKRVEPKSCDKTHTCPPCPAPEFEGGPSVFLFPPKPKDTLMISRTPEVTCVVVAVSHEDPEVKFNWYVDGVEVHNAKTKPREEQYNSTYRVVSVLTVLHQDWLNGKEYKCKVSNKALPAPIEKTISKAKGQPREPQVYTLPPSREEMTKNQVSLTCLVKGFYPSDIAVEWESNGQPENNYKTTPPVLDSDGSFFLYSRLTVDKSRWQQGNVFSCSVMHEALHNHYTQKSLSLSPGK VL: EIVLTQSPATLSLSPGERATLSCRASQSVSSYLAWYQQKPGQAPRLLIYDASNRATGIPARFSGSGSGTDFTLTISSLEPEDFAVYYCQQRSNWPITFGQGTRLEIK | no binding (tested: 0.0015-10 µg/mL) | 103 | 4 | ~0.1 | ~0.2
2 | bsIgG1-huCD3-H1L1-FEALxCD20-11B8-FEAR (bispecific antibody, also called CD3x11B8; huCD3x11B8) heavy 1: not shown light: not shown heavy 2: EVQLVQSGGGLVHPGGSLRLSCTGSGFTFSYHAMHWVRQAPGKGLEWVSIIGTGGVTYYADSVKGRFTISRDNVKNSLYLQMNSLRAEDMAVYYCARDYYGAGSFYDGLYGMDVWGQGTTVTVSSASTKGPSVFPLAPSSKSTSGGTAALGCLVKDYFPEPVTVSWNSGALTSGVHTFPAVLQSSGLYSLSSVVTVPSSSLGTQTYICNVNHKPSNTKVDKRVEPKSCDKTHTCPPCPAPEFEGGPSVFLFPPKPKDTLMISRTPEVTCVVVAVSHEDPEVKFNWYVDGVEVHNAKTKPREEQYNSTYRVVSVLTVLHQDWLNGKEYKCKVSNKALPAPIEKTISKAKGQPREPQVYTLPPSREEMTKNQVSLTCLVKGFYPSDIAVEWESNGQPENNYKTTPPVLDSDGSFFLYSRLTVDKSRWQQGNVFSCSVMHEALHNHYTQKSLSLSPGK VL: EIVLTQSPATLSLSPGERATLSCRASQSVSSYLAWYQQKPGQAPRLLIYDASNRATGIPARFSGSGSGTDFTLTISSLEPEDFAVYYCQQRSDWPLTFGGGTKVEIK | – | 95 | 67 | ~0.1 | ~0.2
3 | bsIgG1-huCD3-H1L1-FEALxCD20-2F2-FEAR (bispecific antibody, also called huCD3x2F2) heavy 1: not shown light: not shown heavy 2: EVQLVESGGGLVQPGRSLRLSCAASGFTFNDYAMHWVRQAPGKGLEWVSTISWNSGSIGYADSVKGRFTISRDNAKKSLYLQMNSLRAEDTALYYCAKDIQYGNYYYGMDVWGQGTTVTVSSASTKGPSVFPLAPSSKSTSGGTAALGCLVKDYFPEPVTVSWNSGALTSGVHTFPAVLQSSGLYSLSSVVTVPSSSLGTQTYICNVNHKPSNTKVDKRVEPKSCDKTHTCPPCPAPEFEGGPSVFLFPPKPKDTLMISRTPEVTCVVVAVSHEDPEVKFNWYVDGVEVHNAKTKPREEQYNSTYRVVSVLTVLHQDWLNGKEYKCKVSNKALPAPIEKTISKAKGQPREPQVYTLPPSREEMTKNQVSLTCLVKGFYPSDIAVEWESNGQPENNYKTTPPVLDSDGSFFLYSRLTVDKSRWQQGNVFSCSVMHEALHNHYTQKSLSLSPGK VL: EIVLTQSPATLSLSPGERATLSCRASQSVSSYLAWYQQKPGQAPRLLIYDASNRATGIPARFSGSGSGTDFTLTISSLEPEDFAVYYCQQRSNWPITFGQGTRLEIK | no binding (tested: 0.0015-10 µg/mL) | 98 | 4 | ~0.1 | ~0.2
